US5185323A, “Suppression of megakaryocytopoiesis employing platelet factor 4 antimaturation factor” (Temple University, priority 1988, dated 1993)

Legend:
Format in all cases: cell-based
[1] = test system: normal human megakaryocyte progenitor cells; test: Megakaryocyte colony formation in plasma clot culture, unseparated marrow MNC (proliferation assay); conditions: control ~11 colonies
Procedure: FIG. 1 graphically illustrates the effect of highly purified platelet factor 4 (PF4) on clonogenicity of normal human megakaryocyte progenitor cells in plasma clot culture. Bone marrow mononuclear cells (MNC) were isolated by density gradient sedimentation and then suspended in the appropriate culture medium, to which was added PF4 in the amounts indicated. The cell suspensions were plated, and cultured for twelve days at 37° C. in a humidified environment containing 5% CO2, and resulting megakaryocyte colonies were then enumerated in situ with an indirect immunofluorescence assay using a polyspecific antiplatelet glycoprotein antiserum as probe. Aggregate results (mean±S.D.) of five separate experiments are shown. Numbers at top of bars indicate p value in comparison to control (CONT.).
Megakaryocyte colonies were cloned in plasma clot cultures as previously described (e.g., Blood 61: 384-9, 1983). […]
Megakaryocyte colonies were enumerated by indirect immunofluorescence assay utilizing a rabbit anti-human platelet glycoprotein antiserum as a megakaryocyte probe (ibid.). […] A cluster of three or more intensely fluorescent cells was counted as one colony. […]
To determine if PF4 could modify megakaryocyte colony formation in vitro, a screen assay was performed by adding various amounts of pure protein to unseparated marrow MNC. […] In the presence of 2.5 μg/ml of PF4, ~7 colonies were counted. […]

[2] = test system: human megakaryocyte progenitor cells; test: Megakaryocyte colony formation in plasma clot culture, MNC depleted of adherent monocyte-macrophages and T lymphocytes; conditions: PF4 25 μg/ml; four experiments (FIG. 3)
From the text: FIG. 3 graphically illustrates the effect of highly purified platelet factor 4 (PF4) on normal human megakaryocyte colony formation in vitro in the absence of accessory marrow immunocytes. Isolated bone marrow mononuclear cells (MNC) were depleted of adherent monocyte-macrophages and lymphocytes and treated as detailed in the Examples. Each line represents the result of a single experiment performed in quadruplicate culture plates. p values in comparison to control are indicated for each experiment.
(§1) Megakaryocyte colonies were cloned in plasma clot cultures as previously described (e.g., Blood 61: 384-9, 1983). The cell population cultured consisted of either unseparated high density marrow mononuclear cells (MNC), or MNC depleted of adherent monocytemacrophages (MO) and T lymphocytes using methods previously reported (e.g., J. Immunol. 2915-2925, 1987). To provide essential growth factors, all cultures were supplemented with normal human AB serum (30% v/v) derived from the platelet-poor plasma of a single donor.
Megakaryocyte colonies were enumerated by indirect immunofluorescence assay utilizing a rabbit anti-human platelet glycoprotein antiserum as a megakaryocyte probe (ibid.). […] A cluster of three or more intensely fluorescent cells was counted as one colony. Unless otherwise stated, all data are reported as the mean± S.D. of colonies enumerated. […]

[3] = test system: human megakaryocyte progenitor cells; test: Megakaryocyte colony formation in co-culture with autologous T lymphocyte subsets
From the text: as §1
Megakaryocyte colonies were enumerated by indirect immunofluorescence assay utilizing a rabbit anti-human platelet glycoprotein antiserum as a megakaryocyte probe (ibid.). […] A cluster of three or more intensely fluorescent cells was counted as one colony. Unless otherwise stated, all data are reported as the mean± S.D. of colonies enumerated.
Since the majority of marrow T lymphocytes are of the suppressor type, and PF4 is described in the prior art as inactivating these cells, the results obtained in Examples IA and IB were unexpected. In fact, it was anticipated that colony formation might be increased because of unopposed T helper activity. Putative progenitor cell-T cell-PF4 interactions were accordingly studied. Control target cells, depleted of adherent monocytes and T lymphocytes were cloned in plasma clots under standard conditions (Table 3). Aliquots of these target cells were also cloned in the presence of either CD4^+ helper, or CD8^+ suppressor T cells alone, or T effector cells plus PF4 at two different concentrations, 2.5 and 25 μg/ml.

[4] = test system: normal human erythroid colony forming units (CFU-E); test: Erythroid colony formation (CFU-E) in plasma clot culture (specificity assay); conditions: concentrations of PF4 which consistently inhibited megakaryocyte colony formation; FIG. 4
From the text: FIG. 4 graphically illustrates the effect of highly purified platelet factor 4 (PF4) on clonogenicity of normal human erythroid colony forming units (CFU-E) in plasma clot culture in the absence of accessory marrow immunocytes. Isolated bone marrow mononuclear cells (MNC) were depleted of adherent monocyte-macrophages and lymphocytes, as detailed in the Examples. After seven days in culture, plates were harvested and fixed and CFU-E detected by benzidine staining. Results of three separate experiments, each performed in quadruplicate culture plates, are shown. The effect of purified protein on inhibition of erythroid colony formation was tested.

B1: platelet factor 4 (protein, UniProt P02776 32-101, looked up)
Platelet factor 4: EAEEDGDLQCLCVKTTSQVRPRHITSLEVIKAGPHCPTAQLIATLKNGRKICLDLQAPLYKKIIKKLLES
notes: Megakaryocyte/platelet-specific α-granule protein purified from outdated human platelets by heparin-agarose chromatography, >95% pure
megakaryocyte colonies enumerated ([1]; PF4 2.5 μg/ml, not significant (p>0.05), aggregate of five experiments): ~ 7 colonies per 2×105 MNC plated | megakaryocyte colonies enumerated ([1]; PF4 25 μg/ml, p<0.007, aggregate of five experiments): five | effect on megakaryocyte colony formation [2]: greatly inhibited in each of the experiments | mean inhibition of megakaryocyte colony formation [2]: ~ 78% | dependence of colony suppressive effect on T lymphocytes [3]: indifferent to the presence of T lymphocytes | effect on colony formation in presence of CD4+ (helper) cells ([3]; PF4 2.5 μg/ml): unchanged | megakaryocyte colonies enumerated (mean ± SEM) ([3]; Study 1, C/T4 2:1 + PF4 2.5 μg/ml, control 7 ± 2, C/T4 alone 11 ± 0): 8 ± 1 colonies | megakaryocyte colonies enumerated (mean ± SEM) ([3]; Study 1, C/T8 2:1 + PF4 2.5 μg/ml, control 7 ± 2, C/T8 alone 6 ± 1): 18 ± 2 colonies | megakaryocyte colonies enumerated (mean ± SEM) ([3]; Study 2, C/T4 2:1 + PF4 2.5 μg/ml, control 4 ± 1, C/T4 alone 3 ± 1): 5 ± 1 colonies | megakaryocyte colonies enumerated (mean ± SEM) ([3]; Study 3, C/T8 2:1 + PF4 2.5 μg/ml, control 11 ± 3): 7 ± 2 colonies | megakaryocyte colonies enumerated (mean ± SEM) ([3]; Study 3, C/T8 2:1 + PF4 25 μg/ml, control 11 ± 3, p < .05): 1 ± 0 colonies | megakaryocyte colonies enumerated (mean ± SEM) ([3]; Study 4, C/T4 2:1 + PF4 2.5 μg/ml, control 116 ± 6, C/T4 alone 141 ± 22): 122 ± 29 colonies | megakaryocyte colonies enumerated (mean ± SEM) ([3]; Study 4, C/T4 2:1 + PF4 25 μg/ml, control 116 ± 6, C/T4 alone 141 ± 22, p < .05): 8 ± 1 colonies | megakaryocyte colonies enumerated (mean ± SEM) ([3]; Study 4, C/T8 2:1 + PF4 2.5 μg/ml, control 116 ± 6, C/T8 alone 163 ± 13, p < .05): 87 ± 15 colonies | megakaryocyte colonies enumerated (mean ± SEM) ([3]; Study 4, C/T8 2:1 + PF4 25 μg/ml, control 116 ± 6, C/T8 alone 163 ± 13, p < .05): 13 ± 2 colonies | megakaryocyte colonies enumerated (mean ± SEM) ([3]; Study 5, C/T4 2:1 + PF4 25 μg/ml, control 33 ± 6, C/T4 alone 39 ± 4, p < .05): 3 ± 1 colonies | megakaryocyte colonies enumerated (mean ± SEM) ([3]; Study 5, C/T8 2:1 + PF4 2.5 μg/ml, control 33 ± 6): 33 ± 4 colonies | megakaryocyte colonies enumerated (mean ± SEM) ([3]; Study 5, C/T8 2:1 + PF4 25 μg/ml, control 33 ± 6, p < .05): 3 ± 1 colonies | effect on colony formation in presence of T cells ([3]; high concentration of PF4): highly significant decrease in colony formation | inhibition of erythroid colony formation units (CFU-E) [4]: no inhibition
